In the RNAGym collection of RNA variant scans (doi:10.1073/pnas.2313332121):

B1: TPR t1 (parent)
chain: GACCAAUCUGCCCUCAGAGCUCGAGAACAUCUUCGGAUGCAGAGGAGGCAGGCUUCGGUGGCGCGAUAGCGCCAACGUCCUCAACCUCCAAUGCAUCCCACCACAUGAUGAUGCCUGAAGAGCCUUGGUUUUUUG

Variants of: B1
Assay: polymerase ribozyme fitness, log enrichment relative to wild type (log ratio); higher = more active; in vitro selection for triplet polymerase activity
How it was run: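 Both subunits of a heterodimeric triplet polymerase ribozyme were given their own mutant library, built by PCR and transcribed. Each library was annealed with a biotinylated primer, the partner subunit and triplets, incubated frozen at −7 °C, and its extended constructs gel-excised, captured on streptavidin beads and amplified by RT-PCR, all in one round done in triplicate. Fitness is the logarithm of genotype enrichment relative to wild-type enrichment, with replicates averaged by inverse-variance weighting. That logarithm is base 2, and Illumina-sequenced genotypes needed ≥10 input reads and ≥1 read per output.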

Variant | polymerase ribozyme fitness (log ratio)
GACCAAUCUGCCCUCAGAGCUCGAGAACAUCUUCGGAUGCAGAGGAGGCAGGCUUCGGUGACGCGAUAGCGCCAACGUCCUCAACCUCCAAUGCAUCCCACCACAUGAUGACGCCUGAAGAGCCUUCGUUUUUUG [G61A U112C G127C] | 0.55
GACCAAUCUGCCCUCAGAGCUCGAGAACAUCUUCGGAUGCAGAGGAGGCAGGCUUCGGUGCCGCGAUAGCGCCAACGUCCUCAACCUCCUAUGCAUCCCACCACAUGAUGAUGCCUGAAGAGCCUUGGUUUUUUG [G61C A90U] | -4.47
GACCAAUCUGCCCUCAGAGCUCGAGAACAUCUUCGGAUGCAGAGGAGGCAGGCUUCGGUGCCGCGAUAGCGCCAACGUCCUCAACCUCCAAUGCAUCCCAUCACAUGAUGAUGCCUGAAGAGCCUUGGUUUUUUG [G61C C101U] | -1.77
GACCAAUCUGCCCUCAGAGCUCGAGAACAUCUUCGGAUGCAGAGGAGGCAGGCUUCGGUGCCGCGAUAGCGCCAACGUCCUCAACCUCCAAUGCAUCCCACCACAUGAUGAUGGCUGAAGAGCCUUGGUUUUUUG [G61C C114G] | -4.27
GACCAAUCUGCCCUCAGAGCUCGAGAACAUCUUCGGAUGCAGAGGAGGCAGGCUUCGGUGCCGCGAUAGCGCCAACGUCCUCAACCUCCAAUGCAUCUCACCACAUGAUGAUGCCUGAAGAGCCUUGGUUUUUUG [G61C C98U] | -2.55
GACCAAUCUGCCCUCAGAGCUCGAGAACAUCUUCGGAUGCAGAGGAGGCAGGCUUCGGUGCCGCGAUAGCGCCAACGUCCUCAACCUCUAAUGCAUCCCACCACAUGAUGAUGCCUGAAGAGCCUUGGUUUUUUG [G61C C89U] | -1.58
GACCAAUCUGCCCUCAGAGCUCGAGAACAUCUUCGGAUGCAGAGGAGGCAGGCUUCGGUGCCGCGAUAGCGCCAACGUCCUCAACCUCCAACGCAUCCCACCACAUGAUGAUGCCUGAAGAGCCUUGGUUUUUUG [G61C U92C] | -2.59
GACCAAUCUGCCCUCAGAGCUCGAGAACAUCUUCGGAUGCAGAGGAGGCAGGCUUCGGUGACGCGAUAGCGCCAACGUCCUCAACCUCCAAUGCAUCCCACCACAUGAUGAUGCCUGAAGAGCCUUGGUUUAUUG [G61A U132A] | 0.242
GACCAAUCUGCCCUCAGAGCUCGAGAACAUCUUCGGAUGCAGAGGAGGCAGGCUUCGGUGCCGCGAUAGCGCCAACGUCCUCAACCUCCAAUGCAUCCCACCACAUGAUGAUGCCUGAACAGCCUUGGUUUUUUG [G61C G120C] | -1.04
GACCAAUCUGCCCUCAGAGCUCGAGAACAUCUUCGGAUGCAGAGGAGGCAGGCUUCGGUGCCGCGAUAGCGCCAACGGCCUCAACCUCCAAUGCAUCCCACCACAUGAUGAUGCCUGAAGAGCCUUGGUGUUUUG [G61C U78G U130G] | -4.62
GACCAAUCUGCCCUCAGAGCUCGAGAACAUCUUCGGAUGCAGAGGAGGCAGGCUUCGGUGCCGCAAUAGCGCCAACGUCCUUAACCUCCAAUGCAUCCCACCACAUGAUGAUGCCUGAAGAGCCUUGGUUUUUUG [G61C G65A C82U] | -7.8
GACCAAUCUGCCCUCAGAGCUCGAGAACAUCUUCGGAUGCAGAGGAGGCAGGCUUCGGUGCCGCGAUAGCGCCAACGACCUCAACCUCCAAUGCAUCCCACCACAUGAUGAUGCCGGAAGAGCCUUGGUUUUUUG [G61C U78A U116G] | -1.8
GACCAAUCUGCCCUCAGAGCUCGAGAACAUCUUCGGAUGCAGAGGAGGCAGGCUUCGGUGCCGCGAUAGCGCCAACUUCCUCAACCUCCAAUGCAUCCCACCACAUGAUGAAGCCUGAAGAGCCUUGGUUUUUUG [G61C G77U U112A] | -2.37
GACCAAUCUGCCCUCAGAGCUCGAGAACAUCUUCGGAUGCAGAGGAGGCAGGCUUCGGUGCCGCGAUAGCGCCAACGUCCUCAACCUCCAAUGCAUCCCUCCACAUGAUGAUGCCUGAACAGCCUUUGUUUUUUG [G61C A100U G120C G127U] | -1.07
GACCAAUCUGCCCUCAGAGCUCGAGAACAUCUUCGGAUGCAGAGGAGGCAGGCUUCGGUGCCGCGAUAGCGCCAACGUCCUCAACCUCCAAUGCAUACCACCACAUGAUGAUGCCUGAAGAGCCUUGGUUUUUUG [G61C C97A] | -4.3
GACCAAUCUGCCCUCAGAGCUCGAGAACAUCUUCGGAUGCAGAGGAGGCAGGCUUCGGUGCCGCGAUAGCGCCAACGUCCUCAACCUCCAAUGCAUACCACCACAUGAUGAUGCCUGAAGAGCGUUGGUUUUUUG [G61C C97A C124G] | -5.48
GACCAAUCUGCCCUCAGAGCUCGAGAACAUCUUCGGAUGCAGAGGAGGCAGGCUUCGGUGCCGCGAUAGCGCCAACGUCCUCAACCUCCAAUGCAUCCCUCCACAUGAUGGUACCUGAAGAGCCUUGGUUUUUUG [G61C A100U A111G G113A] | -4.64
GACCAAUCUGCCCUCAGAGCUCGAGAACAUCUUCGGAUGCAGAGGAGGCAGGCUUCGGUGCCGCGAUAGCGCCAACGUAUUCAACCUCCAAUGCAUCCCACCACAUGAUGAUGCCUGAAGAGCCUUGGUUUUUUG [G61C C79A C80U] | -4.17
GACCAAUCUGCCCUCAGAGCUCGAGAACAUCUUCGGAUGCAGAGGAGGCAGGCUUCGGUGCCCCGAUAGCGCCAACGUCCUCAACCUCCAAUGCAUCCCACCACAUGAUGAUGCCUCAAGAGCCUAGGUUUUUUU [G61C G63C G117C U126A G135U] | -4.51
GACCAAUCUGCCCUCAGAGCUCGAGAACAUCUUCGGAUGCAGAGGAGGCAGGCUUCGGUGUCGCGAUAGCGCCAACGUCCUCAACCUCCAUUGCAUCCCACCACAUGAUGAUGCCUGAAGAGCCUUGGUUUUUUG [G61U A91U] | -1.05
GACCAAUCUGCCCUCAGAGCUCGAGAACAUCUUCGGAUGCAGAGGAGGCAGGCUUCGGUGACGCGAUAGCGCCAACGUCCUCAACCUCCAAUGCAUCCCACCACAUGAUGAUGCCUGAAGAGCCUUGGCUUUUUG [G61A U129C] | 0.132

Variant | polymerase ribozyme fitness (log ratio)
GACCAAUCUGCCCUCAGAGCUCGAGAACAUCUUCGGAUGCAGAGGAGGCAGGCUUCGGUGUCGCGAUAGCGCCAACGUCCUCAACCUCCAAUGCAUCCCACCACAUGAUGCUGCCUGAAGAGCCUUGGUUUUUUG [G61U A111C] | -0.083
GACCAAUCUGCCCUCAGAGCUCGAGAACAUCUUCGGAUGCAGAGGAGGCAGGCUUCGGUGUCGCGAUAGCGCCAACGUCCUCAACCUCCAAUGCAUCCCACCACAUGCUGAUGCCUGAAGAGCCUUGGUUUUUUG [G61U A108C] | -3.81
GACCAAUCUGCCCUCAGAGCUCGAGAACAUCUUCGGAUGCAGAGGAGGCAGGCUUCGGUGCCGCGAUAGUGCCAACGUCCUCAACCUCCAAUGCAUCCCACCACAUGAUGAUGCCUGAAGAGCCUUGGUUUUUUG [G61C C70U] | -4.17
GACCAAUCUGCCCUCAGAGCUCGAGAACAUCUUCGGAUGCAGAGGAGGCAGGCUUCGGUGCCGCGAUAGCGCCAACGUCCUCAACCUCCAAUGCAUCCCACCACAUGAUGAUGCUUGAAGAGCCUUGGUUUUUUG [G61C C115U] | -3.07
GACCAAUCUGCCCUCAGAGCUCGAGAACAUCUUCGGAUGCAGAGGAGGCAGGCUUCGGUGACGCGAUAGCGCCAACGUCCUCAACCUCCAAUGCAUCCCACCACAUGAUGACGCCUGAAGAGCCUUGGUUUUUUG [G61A U112C] | 1.57
GACCAAUCUGCCCUCAGAGCUCGAGAACAUCUUCGGAUGCAGAGGAGGCAGGCUUCGGUGCCGCGAUAGCGCCAACGUCCUCAACCUCCAAUGCAUCCCACCACAUGAUGAUGCCCGAAGAGCCUUGGUUUUUUG [G61C U116C] | -2.77
GACCAAUCUGCCCUCAGAGCUCGAGAACAUCUUCGGAUGCAGAGGAGGCAGGCUUCGGUGCCGCGAUAGCGCCAACGUCCUCAACCUCCAAUGCAUCCCACCACAUGAUGGUGCCGGAAGAGCAUUGGUUGUUUG [G61C A111G U116G C124A U131G] | -3.87
GACCAAUCUGCCCUCAGAGCUCGAGAACAUCUUCGGAUGCAGAGGAGGCAGGCUUCGGUGCCGCGAUAGCGCCAACGUCCUCAACCUCCAAUGCAUCCCAACACAUGAUGAGGCCUGAAGAGCCUUGGUUUUUUG [G61C C101A U112G] | -3.98
GACCAAUCUGCCCUCAGAGCUCGAGAACAUCUUCGGAUGCAGAGGAGGCAGGCUUCGGUGCCGCGAUAGCGCCAACGUCCUCAUCCUCCAAUCCAUCCCACCACAUGAUGAUGCCUGAAGAGCCUUGAUUUUUUG [G61C A84U G93C G128A] | -5.12
GACCAAUCUGCCCUCAGAGCUCGAGAACAUCUUCGGAUGCAGAGGAGGCAGGCUUCGGUGUCGCGUUAGCGCCAACGUCCUCAACCUCCAAUGCAUCCCACCACAUGAUGAAGCCUGAAGAGCCUUGGUUUUUUG [G61U A66U U112A] | 0.256
GACCAAUCUGCCCUCAGAGCUCGAGAACAUCUUCGGAUGCAGAGGAGGCAGGCUUCGGUGCCGCGAUAGCGCCAACGUCCUCACCCUCCAAUGCAUCCCACCACAUGAUGAUGCCUGAAGAGCCUUGGUUUUUUG [G61C A84C] | -1.86
GACCAAUCUGCCCUCAGAGCUCGAGAACAUCUUCGGAUGCAGAGGAGGCAGGCUUCGGUGCCGCGAUAGUGCCAACGUCCUCAACCUCCAAUGCAUCCCACCACAUGAUGAUGUCUGAAGAGCCUUUGUUUUUUG [G61C C70U C114U G127U] | -4.4
GACCAAUCUGCCCUCAGAGCUCGAGAACAUCUUCGGAUGCAGAGGAGGCAGGCUUCGGUGCCGCGAUAGCGCCAACGUCCUCAACCUCCAAAGCAUCUCAUCACAAGAUGAGGCCUGAACAGCCUUGGUUUUUUG [G61C U92A C98U C101U U106A U112G G120C] | -7.61
GACCAAUCUGCCCUCAGAGCUCGAGAACAUCUUCGGAUGCAGAGGAGGCAGGCUUCGGUGACGCGAUAGCGCCAACGUCCUCAACCUCCAAUGCAUCCCACCACAUGAUGAUGCCUGAAGAGCCUUGGUUUUGUG [G61A U133G] | -0.781
GACCAAUCUGCCCUCAGAGCUCGAGAACAUCUUCGGAUGCAGAGGAGGCAGGCUUCGGUGCCUCGAUAGCGCCAACGUCCUCAACCUCCAAUGCAUCCCACCACAUGAUGAUGCCUGAAGAGCCUUGGUUUUUUG [G61C G63U] | -5.51
GACCAAUCUGCCCUCAGAGCUCGAGAACAUCUUCGGAUGCAGAGGAGGCAGGCUUCGGUGCCACGAUAGCGCCAACGUCCUCAACCUCCAAUGCAUCCCACCACAUGAUGAUGCCUGAAGAGCCUUGGUUUUUUG [G61C G63A] | -4.78
GACCAAUCUGCCCUCAGAGCUCGAGAACAUCUUCGGAUGCAGAGGAGGCAGGCUUCGGUGCCGCGAUAGCGCCAACGUCCUCAACCUACAAUGCAUCCCACCACAUGAUGAUGCCUGAAGAGCCUUGGUUUUUUG [G61C C88A] | -2.91
GACCAAUCUGCCCUCAGAGCUCGAGAACAUCUUCGGAUGCAGAGGAGGCAGGCUUCGGUGCCGCGAUAGCGCCAACGUCCUCAACCUCCAAUGCAUCCCACCACACGAUGAUGCCUGAAGAGCCUUGGUUUUUUU [G61C U106C G135U] | -3.18
GACCAAUCUGCCCUCAGAGCUCGAGAACAUCUUCGGAUGCAGAGGAGGCAGGCUUCGGUGCCGCGAUAGCGCCAACGUCCUCAACCUCCAAUGCAUCCCACCCCAUGAGGAUGCCUGAAGAGCCUUGGUUUUUUG [G61C A103C U109G] | -5.79
GACCAAUCUGCCCUCAGAGCUCGAGAACAUCUUCGGAUGCAGAGGAGGCAGGCUUCGGUGCCGCGAUAGCGCCAACGUCCUCAACCUCCAAUGCAUCCCACUACAUGAUGAUGCCUGAAGAGCCUUGGUUUUUUG [G61C C102U] | -3.06
GACCAAUCUGCCCUCAGAGCUCGAGAACAUCUUCGGAUGCAGAGGAGGCAGGCUUCGGUGCCGCAAUAGCGCCAACGUCCUCAACCUCCAAUGCAUCCCACCACAUGAUGAUGCCUGAAGAGCCUUGGUUUUUUG [G61C G65A] | -4.9
